Source: the Human Domainome abundance scans (Beltran et al. 2025)
± gives the uncertainty stated by the source.

B1: POU domain, class 5, transcription factor 1, residues 134 to 212; numbered along this chain, Q01860 (parent)
chain: EESQDIKALQKELEQFAKLLKQKRITLGYTQADVGLTLGVLFGKVFSQTTICRFEALQLSFKNMCKLRPLLQKWVEEAD

Variants of: B1
Test: abundance fitness (aPCA) (normalised: wild type 0, dead -1); higher = more abundant; growth selection in yeast, the domain comes from the species named
Details: Homo sapiens

| Variant | abundance fitness |
| --- | --- |
| EESQDIKALQKELEQFAKLLKQKRITLGYTQADVGLTLGVLFGKVFSQTTICRFEALQLSFKNQCKLRPLLQKWVEEAD [M64Q] | -0.802 ± 0.23 |
| EESQDIKALQKELEQFAKLLKQKRITLGYTQADVGLTLGVLFGKVFSQTTICRFEALQLSFKNCCKLRPLLQKWVEEAD [M64C] | -0.739 ± 0.33 |
| EESQDIKALQKELEQFAKLLKQKRITLGYTQADVGLTLGVLFGKVFSQTTICRFEALQLSFKNDCKLRPLLQKWVEEAD [M64D] | -0.816 ± 0.32 |
| EESQDIKALQKELEQFAKLLKQKRITLGYTQADVGLTLGVLFGKVFSQTTICRFEALQLSFKNVCKLRPLLQKWVEEAD [M64V] | -0.675 ± 0.15 |
| EESQDIKALQKELEQFAKLLKQKRITLGYTQADVGLTLGVLFGKVFSQTTICRFEALQLSFKNPCKLRPLLQKWVEEAD [M64P] | -0.604 ± 0.27 |
| EESQDIKALQKELEQFAKLLKQKRITLGYTQADVGLTLGVLFGKVFSQTTICRFEALQLSFKNNCKLRPLLQKWVEEAD [M64N] | -0.608 ± 0.23 |
| EESQDIKALQKELEQFAKLLKQKRITLGYTQADVGLTLGVLFGKVFSQTTICRFEALQLSFKNRCKLRPLLQKWVEEAD [M64R] | -0.871 ± 0.15 |
| EESQDIKALQKELEQFAKLLKQKRITLGYTQADVGLTLGVLFGKVFSQTTICRFEALQLSFKNLCKLRPLLQKWVEEAD [M64L] | -0.333 ± 0.11 |
| EESQDIKALQKELEQFAKLLKQKRITLGYTQADVGLTLGVLFGKVFSQTTICRFEALQLSFKNECKLRPLLQKWVEEAD [M64E] | -0.763 ± 0.23 |
| EESQDIKALQKELEQFAKLLKQKRITLGYTQADVGLTLGVLFGKVFSQTTICRFEALQLSFKNACKLRPLLQKWVEEAD [M64A] | -0.251 ± 0.11 |
| EESQDIKALQKELEQFAKLLKQKRITLGYTQADVGLTLGVLFGKVFSQTTICRFEALQLSFKNTCKLRPLLQKWVEEAD [M64T] | -0.496 ± 0.14 |
| EESQDIKALQKELEQFAKLLKQKRITLGYTQADVGLTLGVLFGKVFSQTTICRFEALQLSFKNFCKLRPLLQKWVEEAD [M64F] | -0.8 ± 0.47 |
| EESQDIKALQKELEQFAKLLKQKRITLGYTQADVGLTLGVLFGKVFSQTTICRFEALQLSFKNGCKLRPLLQKWVEEAD [M64G] | -0.621 ± 0.12 |
| EESQDIKALQKELEQFAKLLKQKRITLGYTQADVGLTLGVLFGKVFSQTTICRFEALQLSFKNWCKLRPLLQKWVEEAD [M64W] | -0.667 ± 0.22 |
| EESQDIKALQKELEQFAKLLKQKRITLGYTQADVGLTLGVLFGKVFSQTTICRFEALQLSFKNKCKLRPLLQKWVEEAD [M64K] | -0.279 ± 0.13 |
| EESQDIKALQKELEQFAKLLKQKRITLGYTQADVGLTLGVLFGKVFSQTTICRFEALQLSFKVMCKLRPLLQKWVEEAD [N63V] | -0.305 ± 0.13 |
| EESQDIKALQKELEQFAKLLKQKRITLGYTQADVGLTLGVLFGKVFSQTTICRFEALQLSFKMMCKLRPLLQKWVEEAD [N63M] | -0.088 ± 0.33 |
| EESQDIKALQKELEQFAKLLKQKRITLGYTQADVGLTLGVLFGKVFSQTTICRFEALQLSFKAMCKLRPLLQKWVEEAD [N63A] | 0.045 ± 0.11 |

| Variant | abundance fitness |
| --- | --- |
| EESQDIKALQKELEQFAKLLKQKRITLGYTQADVGLTLGVLFGKVFSQTTICRFEALQLSFKQMCKLRPLLQKWVEEAD [N63Q] | -0.236 ± 0.24 |
| EESQDIKALQKELEQFAKLLKQKRITLGYTQADVGLTLGVLFGKVFSQTTICRFEALQLSFKDMCKLRPLLQKWVEEAD [N63D] | -0.093 ± 0.24 |
| EESQDIKALQKELEQFAKLLKQKRITLGYTQADVGLTLGVLFGKVFSQTTICRFEALQLSFKLMCKLRPLLQKWVEEAD [N63L] | -0.336 ± 0.2 |
| EESQDIKALQKELEQFAKLLKQKRITLGYTQADVGLTLGVLFGKVFSQTTICRFEALQLSFKSMCKLRPLLQKWVEEAD [N63S] | 0.299 ± 0.11 |
| EESQDIKALQKELEQFAKLLKQKRITLGYTQADVGLTLGVLFGKVFSQTTICRFEALQLSFKWMCKLRPLLQKWVEEAD [N63W] | -0.832 ± 0.39 |
| EESQDIKALQKELEQFAKLLKQKRITLGYTQADVGLTLGVLFGKVFSQTTICRFEALQLSFKTMCKLRPLLQKWVEEAD [N63T] | -0.303 ± 0.22 |
| EESQDIKALQKELEQFAKLLKQKRITLGYTQADVGLTLGVLFGKVFSQTTICRFEALQLSFKRMCKLRPLLQKWVEEAD [N63R] | 0.037 ± 0.095 |
| EESQDIKALQKELEQFAKLLKQKRITLGYTQADVGLTLGVLFGKVFSQTTICRFEALQLSFKCMCKLRPLLQKWVEEAD [N63C] | -0.31 ± 0.24 |
| EESQDIKALQKELEQFAKLLKQKRITLGYTQADVGLTLGVLFGKVFSQTTICRFEALQLSFKHMCKLRPLLQKWVEEAD [N63H] | -0.183 ± 0.31 |
| EESQDIKALQKELEQFAKLLKQKRITLGYTQADVGLTLGVLFGKVFSQTTICRFEALQLSFKYMCKLRPLLQKWVEEAD [N63Y] | -0.387 ± 0.5 |
| EESQDIKALQKELEQFAKLLKQKRITLGYTQADVGLTLGVLFGKVFSQTTICRFEALQLSFKEMCKLRPLLQKWVEEAD [N63E] | 0.126 ± 0.14 |
| EESQDIKALQKELEQFAKLLKQKRITLGYTQADVGLTLGVLFGKVFSQTTICRFEALQLSFKGMCKLRPLLQKWVEEAD [N63G] | -0.314 ± 0.1 |
| EESQDIKALQKELEQFAKLLKQKRITLGYTQADVGLTLGVLFGKVFSQTTICRFEALQLSFKFMCKLRPLLQKWVEEAD [N63F] | -0.2 ± 0.43 |
| EESQDIKALQKELEQFAKLLKQKRITLGYTQADVGLTLGVLFGKVFSQTTICRFEALQLSFKKMCKLRPLLQKWVEEAD [N63K] | 0.172 ± 0.23 |
| EESQDIKALQKELEQFAKLLKQKRITLGYTQADVGLTLGVLFGKVFSQTTICRFEALQLSFTNMCKLRPLLQKWVEEAD [K62T] | -0.055 ± 0.19 |
| EESQDIKALQKELEQFAKLLKQKRITLGYTQADVGLTLGVLFGKVFSQTTICRFEALQLSFVNMCKLRPLLQKWVEEAD [K62V] | -0.24 ± 0.14 |
| EESQDIKALQKELEQFAKLLKQKRITLGYTQADVGLTLGVLFGKVFSQTTICRFEALQLSFSNMCKLRPLLQKWVEEAD [K62S] | 0.041 ± 0.13 |
